The text below walks through data of article PMC9381698, “Generation of synthetic antibody fragments with optimal complementarity determining region lengths for Notch-1 recognition” (Frontiers in Microbiology, 2022).

What all share (conditions): both partners purified
The target in experiment [1] is T1, Jagged-2 receptor ectodomain (Homo sapiens (assumed), UniProt Q9Y219).
T1 construct: Jagged-2 ectodomain; it may be an Fc fusion like the Notch proteins; also called J2
Description: BLI; Octet RED384; Fabs immobilised on amine-reactive generation-2 or anti-Fab CH1 biosensors, target proteins in solution at three or more concentrations; 25 C, PBS; global 1:1 fit; apparent KD (Fc-Notch proteins may dimerize, avidity). (In general: BLI is a label-free optical method that tracks binding on a fibre tip over time.)
T1 sequence (Q9Y219 27-1080): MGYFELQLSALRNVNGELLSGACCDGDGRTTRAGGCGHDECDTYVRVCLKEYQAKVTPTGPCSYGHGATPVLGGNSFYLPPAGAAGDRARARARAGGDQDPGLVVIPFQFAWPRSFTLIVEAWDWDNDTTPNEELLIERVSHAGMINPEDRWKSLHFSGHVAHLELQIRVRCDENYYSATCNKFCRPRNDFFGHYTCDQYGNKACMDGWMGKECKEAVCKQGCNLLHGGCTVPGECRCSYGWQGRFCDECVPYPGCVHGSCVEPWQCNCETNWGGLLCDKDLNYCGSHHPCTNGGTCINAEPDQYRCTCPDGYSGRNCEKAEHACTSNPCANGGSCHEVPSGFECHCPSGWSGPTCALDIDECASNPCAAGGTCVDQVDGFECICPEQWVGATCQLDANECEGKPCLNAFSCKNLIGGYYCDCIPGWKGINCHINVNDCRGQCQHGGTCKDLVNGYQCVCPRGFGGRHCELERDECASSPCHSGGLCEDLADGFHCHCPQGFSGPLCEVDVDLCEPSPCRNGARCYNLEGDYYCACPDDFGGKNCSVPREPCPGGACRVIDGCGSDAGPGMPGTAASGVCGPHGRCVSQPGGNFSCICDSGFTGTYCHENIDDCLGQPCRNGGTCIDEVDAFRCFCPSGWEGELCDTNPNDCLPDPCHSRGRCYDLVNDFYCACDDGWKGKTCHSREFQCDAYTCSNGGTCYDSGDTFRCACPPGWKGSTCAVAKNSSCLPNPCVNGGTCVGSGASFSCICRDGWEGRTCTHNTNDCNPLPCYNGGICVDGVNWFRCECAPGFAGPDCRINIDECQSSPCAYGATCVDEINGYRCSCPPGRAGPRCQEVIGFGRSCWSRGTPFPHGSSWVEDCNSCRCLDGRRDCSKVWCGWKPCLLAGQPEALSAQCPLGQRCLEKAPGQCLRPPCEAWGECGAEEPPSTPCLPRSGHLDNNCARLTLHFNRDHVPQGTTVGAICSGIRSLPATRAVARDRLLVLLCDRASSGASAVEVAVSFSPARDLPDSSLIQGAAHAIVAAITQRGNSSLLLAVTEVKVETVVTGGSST

Experiment [2] deals with T2, recombinant Fc-tag-fused human Notch-1 extracellular domain (Homo sapiens, UniProt P46531).
T2 construct: Notch-1, human, extracellular domain; No catalogue number and no residue limits are printed; also called N1; source: bought: R&D Systems
Described as above.
T2 sequence (P46531 19-1735): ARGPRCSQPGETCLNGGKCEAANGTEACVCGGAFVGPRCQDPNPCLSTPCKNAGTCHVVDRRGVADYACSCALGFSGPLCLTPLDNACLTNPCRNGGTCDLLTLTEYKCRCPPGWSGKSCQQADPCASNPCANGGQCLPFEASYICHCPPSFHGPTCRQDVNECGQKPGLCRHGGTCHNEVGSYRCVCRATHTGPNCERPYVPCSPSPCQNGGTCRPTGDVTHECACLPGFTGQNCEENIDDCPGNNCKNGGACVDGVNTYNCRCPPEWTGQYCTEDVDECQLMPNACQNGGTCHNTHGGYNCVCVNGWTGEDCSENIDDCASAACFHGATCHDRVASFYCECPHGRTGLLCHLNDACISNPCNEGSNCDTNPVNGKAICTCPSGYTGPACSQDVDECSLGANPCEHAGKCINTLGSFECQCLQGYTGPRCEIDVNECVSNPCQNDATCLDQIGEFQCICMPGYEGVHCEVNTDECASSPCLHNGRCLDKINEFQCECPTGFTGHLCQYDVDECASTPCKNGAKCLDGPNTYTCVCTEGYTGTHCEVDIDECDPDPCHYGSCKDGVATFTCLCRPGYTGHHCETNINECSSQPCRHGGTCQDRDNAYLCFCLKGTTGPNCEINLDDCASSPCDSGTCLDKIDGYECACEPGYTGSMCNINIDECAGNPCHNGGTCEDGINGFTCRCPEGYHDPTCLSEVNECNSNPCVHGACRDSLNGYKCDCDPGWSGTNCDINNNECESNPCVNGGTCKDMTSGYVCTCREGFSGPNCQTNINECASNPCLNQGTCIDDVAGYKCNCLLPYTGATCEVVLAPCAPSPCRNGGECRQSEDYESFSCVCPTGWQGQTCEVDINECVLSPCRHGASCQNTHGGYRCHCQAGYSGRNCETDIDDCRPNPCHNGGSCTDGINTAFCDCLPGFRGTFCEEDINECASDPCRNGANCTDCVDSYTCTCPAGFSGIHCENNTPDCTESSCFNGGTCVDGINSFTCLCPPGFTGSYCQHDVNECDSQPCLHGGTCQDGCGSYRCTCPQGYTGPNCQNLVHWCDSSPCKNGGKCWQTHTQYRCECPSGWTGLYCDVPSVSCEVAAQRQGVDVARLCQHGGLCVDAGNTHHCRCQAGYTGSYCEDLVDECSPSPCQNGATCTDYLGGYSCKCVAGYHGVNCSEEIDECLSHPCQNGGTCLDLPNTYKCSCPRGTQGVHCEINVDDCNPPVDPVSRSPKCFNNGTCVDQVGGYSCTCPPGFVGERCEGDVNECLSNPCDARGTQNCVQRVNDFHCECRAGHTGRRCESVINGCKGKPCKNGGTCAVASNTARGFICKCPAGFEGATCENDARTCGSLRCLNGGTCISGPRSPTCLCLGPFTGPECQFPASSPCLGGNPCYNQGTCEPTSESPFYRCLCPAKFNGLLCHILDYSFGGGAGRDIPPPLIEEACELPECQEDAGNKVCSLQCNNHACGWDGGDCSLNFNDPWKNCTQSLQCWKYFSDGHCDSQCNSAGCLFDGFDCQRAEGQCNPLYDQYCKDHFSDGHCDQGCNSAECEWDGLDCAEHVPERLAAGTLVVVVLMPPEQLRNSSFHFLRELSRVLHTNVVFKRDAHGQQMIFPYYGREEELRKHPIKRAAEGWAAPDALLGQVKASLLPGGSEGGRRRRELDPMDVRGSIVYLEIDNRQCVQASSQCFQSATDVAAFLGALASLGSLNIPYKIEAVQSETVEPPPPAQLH

The target in experiment [3] is T2, recombinant Fc-tag-fused human Notch-1 …. The experiment can be described thus: ELISA; multi-point Fab-ELISA: target immobilised at 5 ug/ml on MaxiSorp plates; purified Fab 0.01 nM-1 uM in PT for 30 min; detected with HRP-conjugated anti-HIS antibody; EC50 from a one-site specific-binding fit. Background: An ELISA detects its analyte on a solid surface through an enzyme-linked reagent.

Experiment [4] addresses T3, recombinant Fc-tag-fused human Notch-1 extracellular domain (Homo sapiens, UniProt P46531).
T3 construct: Notch-1, human, extracellular domain; the R&D Systems product may hold only part of the ectodomain (surmise); also called N1; Fc-Notch; source: bought: R&D Systems
Description: BLI; Fabs immobilised on amine-reactive generation-2 or anti-Fab CH1 biosensors, target proteins in solution at at least three concentrations; 25°C, PBS; global fit to a 1:1 binding model; apparent constants (Fc fusions may dimerize).
T3 sequence (P46531 19-1735): as above

Experiment [5] concerns the target T4, Jagged-2 receptor ectodomain (Homo sapiens (assumed), UniProt Q9Y219).
T4 construct: Jagged-2 ectodomain; Probably an Fc fusion like the Notch proteins (surmise); also called J2
Described as above.
T4 sequence (Q9Y219 27-1080): as the sequence (Q9Y219 27-1080) above

B1: Fab N1/F/R2 (purified soluble Fab) (Fab, V domains shown)
VH: EVQLVESGGGLVQPGGSLRLSCAASGFNFSSSSIHWVRQAPGKGLEWVASIYSYYGYTYYADSVKGRFTISADTSKNTAYLQMNSLRAEDTAVYYCARSWWGGSWYAALDYWGQGTLVTVSS
VL: DIQMTQSPSSLSASVGDRVTITCRASQSVSSAVAWYQQKPGKAPKLLIYSASSLYSGVPSRFSGSRSGTDFTLTISSLQPEDFATYYCQQWWSLITFGQGTKVEIK
notes: light chain on the modified trastuzumab framework of Library-F (Persson et al., 2013); CDRs L1 and L2 fixed; clone reconstructed from NGS information; Fab heavy chain on the modified trastuzumab framework of Library-F; medium CDRH3 length; The Fab is detected by an anti-HIS antibody; source: E. coli BL21, purified (Protein-L resin)
B1: the Kd in experiment [1] was 70.4 ± 2.3 nM; in experiment [2] it was 1.38 nM. Moreover, the EC50 in experiment [3] is roughly 4 nM.

B2: Fab N1/F/R2 (Fab, V domains shown)
VH: B1 VH
VL: B1 VL
notes: Library-F rare Fab reconstructed from NGS information, modified trastuzumab framework; Library-F rare Fab reconstructed from NGS information, modified trastuzumab framework, CDRs L1 and L2 fixed; The Fab has a His tag (detected with anti-HIS antibody and biosensors); Library-F framework: Persson et al., 2013; source: E. coli BL21, purified (Protein-L resin)
Take B2: in experiment [4], the koff stood at 6.91e-05 s⁻¹ and the kon turned out to be 54400 M⁻¹ s⁻¹. Besides, in experiment [5], the koff came out at 0.0226 s⁻¹ and the kon amounted to 313000 M⁻¹ s⁻¹.

For orientation: EC50 means the concentration that produces a half-maximal response. In general, koff refers to a measure of how fast the partners let go of each other. Usually kon stands for the second-order rate constant of association.
